Measurements reported in IntAct's records for PubMed 15485833.

B1: Actin nucleation-promoting factor WASL (Homo sapiens), O00401 (parent)
chain: MSSVQQQPPPPRRVTNVGSLLLTPQENESLFTFLGKKCVTMSSAVVQLYAADRNCMWSKKCSGVACLVKDNPQRSYFLRIFDIKDGKLLWEQELYNNFVYNSPRGYFHTFAGDTCQVALNFANEEEAKKFRKAVTDLLGRRQRKSEKRRDPPNGPNLPMATVDIKNPEITTNRFYGPQVNNISHTKEKKKGKAKKKRLTKADIGTPSNFQHIGHVGWDPNTGFDLNNLDPELKNLFDMCGISEAQLKDRETSKVIYDFIEKTGGVEAVKNELRRQAPPPPPPSRGGPPPPPPPPHNSGPPPPPARGRGAPPPPPSRAPTAAPPPPPPSRPSVAVPPPPPNRMYPPPPPALPSSAPSGPPPPPPSVLGVGPVAPPPPPPPPPPPGPPPPPGLPSDGDHQVPTTAGNKAALLDQIREGAQLKKVEQNSRPVSCSGRDALLDQIRQGIQLKSVADGQESTPPTPAPTSGIVGALMEVMQKRSKAIHSSDEDEDEDDEEDFEDDDEWED

Variants of: B1
Conditions: with arpc1_yeast ARC40, P38328
Chain of arpc1_yeast ARC40, P38328 (P38328 whole entry): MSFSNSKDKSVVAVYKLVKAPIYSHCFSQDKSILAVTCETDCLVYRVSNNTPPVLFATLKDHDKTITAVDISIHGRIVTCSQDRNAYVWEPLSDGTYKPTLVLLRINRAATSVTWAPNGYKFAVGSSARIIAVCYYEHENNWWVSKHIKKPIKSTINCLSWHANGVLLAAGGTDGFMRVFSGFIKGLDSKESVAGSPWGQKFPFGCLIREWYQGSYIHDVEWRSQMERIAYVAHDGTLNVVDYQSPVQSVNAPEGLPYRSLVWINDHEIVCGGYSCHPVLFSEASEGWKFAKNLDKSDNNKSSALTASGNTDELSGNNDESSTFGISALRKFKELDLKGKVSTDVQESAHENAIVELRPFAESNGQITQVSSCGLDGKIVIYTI

Variant	effect of a mutation on the interaction
MSSVQQQPPPPRRVTNVGSLLLTPQENESLFTFLGKKCVTMSSAVVQLYAADRNCMWSKKCSGVACLVKDNPQRSYFLRIFDIKDGKLLWEQELYNNFVYNSPRGYFHTFAGDTCQVALNFANEEEAKKFRKAVTDLLGRRQRKSEKRRDPPNGPNLPMATVDIKNPEITTNRFYGPQVNNISHTKEKKKGKAKKKRLTKADIGTPSNFQHIGHVGWDPNTGFDLNNLDPELKNLFDMCGISEAQLKDRETSKVIYDFIEKTGGVEAVKNELRRQAPPPPPPSRGGPPPPPPPPHNSGPPPPPARGRGAPPPPPSRAPTAAPPPPPPSRPSVAVPPPPPNRMYPPPPPALPSSAPSGPPPPPPSVLGVGPVAPPPPPPPPPPPGPPPPPGLPSDGDHQVPTTAGNKAALLDQIREGAQLKKVEQNSRPVSCSGRDALLDQIRQGIQLKSVADGQESTPPTPAPTSGIVGALMEVMQKRSKAIHSSDEDEDEDDEEDFEDDDEAED [W503A]	decreasing interaction

Variants of: B1
Conditions: with arp3_yeast ARP3, P47117
Chain of arp3_yeast ARP3, P47117 (P47117 whole entry): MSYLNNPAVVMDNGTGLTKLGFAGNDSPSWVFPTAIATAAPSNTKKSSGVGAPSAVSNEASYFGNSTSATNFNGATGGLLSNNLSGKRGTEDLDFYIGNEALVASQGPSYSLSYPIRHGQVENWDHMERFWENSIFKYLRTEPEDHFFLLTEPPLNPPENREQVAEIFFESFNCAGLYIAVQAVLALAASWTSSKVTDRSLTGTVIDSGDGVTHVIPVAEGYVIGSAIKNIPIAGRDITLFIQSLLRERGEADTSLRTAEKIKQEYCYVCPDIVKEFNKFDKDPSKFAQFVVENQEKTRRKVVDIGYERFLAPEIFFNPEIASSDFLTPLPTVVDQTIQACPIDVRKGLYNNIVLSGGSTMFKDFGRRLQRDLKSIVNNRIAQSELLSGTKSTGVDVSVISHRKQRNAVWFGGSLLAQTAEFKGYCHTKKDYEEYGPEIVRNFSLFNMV

Variant	effect of a mutation on the interaction
MSSVQQQPPPPRRVTNVGSLLLTPQENESLFTFLGKKCVTMSSAVVQLYAADRNCMWSKKCSGVACLVKDNPQRSYFLRIFDIKDGKLLWEQELYNNFVYNSPRGYFHTFAGDTCQVALNFANEEEAKKFRKAVTDLLGRRQRKSEKRRDPPNGPNLPMATVDIKNPEITTNRFYGPQVNNISHTKEKKKGKAKKKRLTKADIGTPSNFQHIGHVGWDPNTGFDLNNLDPELKNLFDMCGISEAQLKDRETSKVIYDFIEKTGGVEAVKNELRRQAPPPPPPSRGGPPPPPPPPHNSGPPPPPARGRGAPPPPPSRAPTAAPPPPPPSRPSVAVPPPPPNRMYPPPPPALPSSAPSGPPPPPPSVLGVGPVAPPPPPPPPPPPGPPPPPGLPSDGDHQVPTTAGNKAALLDQIREGAQLKKVEQNSRPVSCSGRDALLDQIRQGIQLKSVADGQESTPPTPAPTSGIVGALMEVMQKRSKAIHSSDEDEDEDDEEDFEDDDEAED [W503A]	decreasing interaction

Variants of: B1
Conditions: with arp2_yeast ARP2, P32381
Chain of arp2_yeast ARP2, P32381 (P32381 whole entry): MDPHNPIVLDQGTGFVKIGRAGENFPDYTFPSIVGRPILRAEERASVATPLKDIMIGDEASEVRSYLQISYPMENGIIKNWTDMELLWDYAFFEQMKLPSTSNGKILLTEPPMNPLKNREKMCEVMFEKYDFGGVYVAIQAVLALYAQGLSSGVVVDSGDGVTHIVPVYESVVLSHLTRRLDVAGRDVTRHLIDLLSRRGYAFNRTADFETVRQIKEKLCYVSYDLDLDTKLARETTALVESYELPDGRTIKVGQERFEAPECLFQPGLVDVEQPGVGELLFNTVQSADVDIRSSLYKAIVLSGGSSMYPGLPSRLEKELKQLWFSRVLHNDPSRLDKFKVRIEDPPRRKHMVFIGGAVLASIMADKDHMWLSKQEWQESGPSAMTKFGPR

Variant	effect of a mutation on the interaction
MSSVQQQPPPPRRVTNVGSLLLTPQENESLFTFLGKKCVTMSSAVVQLYAADRNCMWSKKCSGVACLVKDNPQRSYFLRIFDIKDGKLLWEQELYNNFVYNSPRGYFHTFAGDTCQVALNFANEEEAKKFRKAVTDLLGRRQRKSEKRRDPPNGPNLPMATVDIKNPEITTNRFYGPQVNNISHTKEKKKGKAKKKRLTKADIGTPSNFQHIGHVGWDPNTGFDLNNLDPELKNLFDMCGISEAQLKDRETSKVIYDFIEKTGGVEAVKNELRRQAPPPPPPSRGGPPPPPPPPHNSGPPPPPARGRGAPPPPPSRAPTAAPPPPPPSRPSVAVPPPPPNRMYPPPPPALPSSAPSGPPPPPPSVLGVGPVAPPPPPPPPPPPGPPPPPGLPSDGDHQVPTTAGNKAALLDQIREGAQLKKVEQNSRPVSCSGRDALLDQIRQGIQLKSVADGQESTPPTPAPTSGIVGALMEVMQKRSKAIHSSDEDEDEDDEEDFEDDDEAED [W503A]	decreasing interaction
